According to paper PMC2119541:
Where “and” joins values, the source holds several entries; their conditions need not be identical. Identical values can stand only once.

Experiments:
Assay in all cases: radioligand binding
collagen type V = collagen type V (UniProt P20908)
collagen type IV = collagen type IV (UniProt P02462)
collagen type IX = collagen type IX (UniProt P20849)
[1] = target: Englebreth-Holm sarcoma laminin (UniProt P19137)
[2] = target: laminin and collagen type IV (isotonic conditions with Ca2+)
collagen type III = collagen type III (UniProt P02461)
Sequence of UniProt P02461 (P02461 24-1221): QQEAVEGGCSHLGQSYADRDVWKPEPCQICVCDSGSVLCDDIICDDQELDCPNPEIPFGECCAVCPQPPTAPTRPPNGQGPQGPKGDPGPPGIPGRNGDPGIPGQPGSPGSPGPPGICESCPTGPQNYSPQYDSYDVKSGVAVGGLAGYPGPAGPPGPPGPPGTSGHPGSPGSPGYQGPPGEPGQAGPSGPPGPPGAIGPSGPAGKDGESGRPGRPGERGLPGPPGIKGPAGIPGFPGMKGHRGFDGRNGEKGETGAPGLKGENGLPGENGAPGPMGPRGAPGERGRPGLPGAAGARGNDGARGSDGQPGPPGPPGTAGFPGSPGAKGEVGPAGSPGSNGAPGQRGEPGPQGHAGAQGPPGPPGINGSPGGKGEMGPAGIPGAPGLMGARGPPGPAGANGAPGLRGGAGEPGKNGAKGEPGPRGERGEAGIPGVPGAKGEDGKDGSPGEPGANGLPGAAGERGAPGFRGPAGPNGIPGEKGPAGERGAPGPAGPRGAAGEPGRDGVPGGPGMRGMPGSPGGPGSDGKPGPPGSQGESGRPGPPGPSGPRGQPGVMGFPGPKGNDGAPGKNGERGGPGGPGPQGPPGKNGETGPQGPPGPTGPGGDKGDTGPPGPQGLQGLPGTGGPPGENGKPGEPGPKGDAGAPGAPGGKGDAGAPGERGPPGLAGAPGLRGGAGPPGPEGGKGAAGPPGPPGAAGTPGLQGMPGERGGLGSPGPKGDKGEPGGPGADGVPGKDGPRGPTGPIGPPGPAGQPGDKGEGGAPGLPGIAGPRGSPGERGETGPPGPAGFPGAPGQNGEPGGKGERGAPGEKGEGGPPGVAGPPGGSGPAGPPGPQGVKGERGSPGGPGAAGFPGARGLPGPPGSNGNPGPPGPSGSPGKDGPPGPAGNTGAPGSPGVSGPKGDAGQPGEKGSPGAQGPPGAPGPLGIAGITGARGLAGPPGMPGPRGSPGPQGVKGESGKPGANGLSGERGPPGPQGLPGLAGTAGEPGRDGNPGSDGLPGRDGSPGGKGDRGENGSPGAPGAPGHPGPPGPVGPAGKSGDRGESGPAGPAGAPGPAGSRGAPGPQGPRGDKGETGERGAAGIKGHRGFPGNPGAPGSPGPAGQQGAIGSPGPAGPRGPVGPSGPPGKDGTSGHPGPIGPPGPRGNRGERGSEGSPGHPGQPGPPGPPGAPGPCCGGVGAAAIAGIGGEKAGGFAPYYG

Sequence of UniProt P20908 (P20908 38-1605, chain 1 of 2): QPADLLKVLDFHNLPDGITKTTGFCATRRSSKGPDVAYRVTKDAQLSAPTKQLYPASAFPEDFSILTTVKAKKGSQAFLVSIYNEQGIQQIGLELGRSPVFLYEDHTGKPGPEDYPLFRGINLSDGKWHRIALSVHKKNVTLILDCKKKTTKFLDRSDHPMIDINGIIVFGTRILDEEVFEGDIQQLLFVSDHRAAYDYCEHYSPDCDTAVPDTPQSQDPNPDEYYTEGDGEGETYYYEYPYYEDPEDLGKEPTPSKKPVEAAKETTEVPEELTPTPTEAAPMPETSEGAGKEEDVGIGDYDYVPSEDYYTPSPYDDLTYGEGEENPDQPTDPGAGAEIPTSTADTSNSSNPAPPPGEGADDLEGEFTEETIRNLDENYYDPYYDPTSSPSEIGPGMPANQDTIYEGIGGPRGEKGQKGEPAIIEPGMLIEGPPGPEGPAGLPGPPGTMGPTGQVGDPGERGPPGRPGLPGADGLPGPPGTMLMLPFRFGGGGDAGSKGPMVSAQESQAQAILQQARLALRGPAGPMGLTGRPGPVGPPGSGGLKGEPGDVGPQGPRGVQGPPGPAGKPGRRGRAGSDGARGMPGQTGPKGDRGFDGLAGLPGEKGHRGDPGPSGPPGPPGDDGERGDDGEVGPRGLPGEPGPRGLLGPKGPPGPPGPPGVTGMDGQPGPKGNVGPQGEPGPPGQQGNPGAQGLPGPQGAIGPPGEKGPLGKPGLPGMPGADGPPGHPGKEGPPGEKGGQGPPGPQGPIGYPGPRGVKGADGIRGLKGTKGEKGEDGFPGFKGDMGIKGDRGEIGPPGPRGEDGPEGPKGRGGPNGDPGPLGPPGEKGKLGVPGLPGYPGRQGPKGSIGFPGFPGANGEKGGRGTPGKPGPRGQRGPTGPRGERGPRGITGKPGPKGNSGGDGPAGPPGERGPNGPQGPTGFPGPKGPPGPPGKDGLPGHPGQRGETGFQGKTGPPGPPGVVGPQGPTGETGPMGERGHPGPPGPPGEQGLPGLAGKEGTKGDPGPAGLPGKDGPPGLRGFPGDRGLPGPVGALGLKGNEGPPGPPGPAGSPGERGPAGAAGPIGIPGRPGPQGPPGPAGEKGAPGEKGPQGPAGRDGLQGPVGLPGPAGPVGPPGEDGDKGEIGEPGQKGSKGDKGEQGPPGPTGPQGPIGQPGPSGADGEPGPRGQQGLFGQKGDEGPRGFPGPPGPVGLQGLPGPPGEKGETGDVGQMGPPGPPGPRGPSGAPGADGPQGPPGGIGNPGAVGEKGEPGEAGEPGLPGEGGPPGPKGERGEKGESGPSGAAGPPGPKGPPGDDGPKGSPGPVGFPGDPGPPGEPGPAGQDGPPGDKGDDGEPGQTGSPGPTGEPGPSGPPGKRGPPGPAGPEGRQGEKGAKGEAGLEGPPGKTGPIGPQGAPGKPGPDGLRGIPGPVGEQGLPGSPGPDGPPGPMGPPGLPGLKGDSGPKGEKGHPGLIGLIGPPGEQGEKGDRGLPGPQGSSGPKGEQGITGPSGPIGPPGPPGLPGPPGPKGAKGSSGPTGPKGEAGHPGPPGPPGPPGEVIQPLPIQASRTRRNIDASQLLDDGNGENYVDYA
Sequence of UniProt P20908 (P05997 27-1229, chain 2 of 2, further chain): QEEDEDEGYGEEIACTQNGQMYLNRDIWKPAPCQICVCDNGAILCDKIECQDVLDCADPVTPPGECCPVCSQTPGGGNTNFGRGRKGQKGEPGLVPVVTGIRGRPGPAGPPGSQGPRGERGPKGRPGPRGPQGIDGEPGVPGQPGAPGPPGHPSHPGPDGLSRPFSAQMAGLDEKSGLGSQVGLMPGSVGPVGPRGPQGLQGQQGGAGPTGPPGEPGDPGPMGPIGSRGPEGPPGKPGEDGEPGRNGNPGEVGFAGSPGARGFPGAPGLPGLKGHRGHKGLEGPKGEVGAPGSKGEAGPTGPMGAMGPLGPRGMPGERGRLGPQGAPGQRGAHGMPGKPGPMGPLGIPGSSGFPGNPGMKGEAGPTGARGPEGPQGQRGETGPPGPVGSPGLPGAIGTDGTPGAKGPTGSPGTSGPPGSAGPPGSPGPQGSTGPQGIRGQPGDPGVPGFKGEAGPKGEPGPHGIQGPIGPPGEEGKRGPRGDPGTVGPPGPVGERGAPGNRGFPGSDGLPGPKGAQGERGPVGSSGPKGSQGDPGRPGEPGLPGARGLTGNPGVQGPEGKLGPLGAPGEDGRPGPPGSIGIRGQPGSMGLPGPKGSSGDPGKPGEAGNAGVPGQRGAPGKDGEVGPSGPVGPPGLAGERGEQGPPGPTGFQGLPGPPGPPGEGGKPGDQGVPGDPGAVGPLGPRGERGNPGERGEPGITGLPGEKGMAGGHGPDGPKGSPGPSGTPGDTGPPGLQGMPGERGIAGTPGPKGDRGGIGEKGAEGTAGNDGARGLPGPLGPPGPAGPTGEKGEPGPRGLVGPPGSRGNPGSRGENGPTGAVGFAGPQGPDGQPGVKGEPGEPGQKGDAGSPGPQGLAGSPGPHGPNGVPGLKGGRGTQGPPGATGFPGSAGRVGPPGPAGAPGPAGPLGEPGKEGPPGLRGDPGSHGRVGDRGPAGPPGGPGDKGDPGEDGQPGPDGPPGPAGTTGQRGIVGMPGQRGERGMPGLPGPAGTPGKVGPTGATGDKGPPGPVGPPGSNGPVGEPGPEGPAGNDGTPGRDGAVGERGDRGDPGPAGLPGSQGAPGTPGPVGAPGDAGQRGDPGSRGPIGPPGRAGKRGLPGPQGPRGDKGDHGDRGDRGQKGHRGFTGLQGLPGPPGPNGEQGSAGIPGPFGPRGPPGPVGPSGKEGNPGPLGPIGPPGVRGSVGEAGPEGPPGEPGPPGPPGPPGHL

Q: For astrochondrin (natural protein), which fold binding over binding to BSA (collagen type V) is on record?
A: 10 fold

Q: What about the percent of the added astrochondrin bound (collagen type V) of the same substance?
A: < 40%

Q: What about the percent of the total input bound (collagen type V) of the same substance?
A: < 80%

Q: What about the percent of the total input bound at 15 mM NaCl (collagen type V) of the same substance?
A: 30%

Q: And the fold binding over binding to BSA (collagen type IV)?
A: < 7 fold

Q: And the percent of the total input bound (collagen type IV)?
A: 30%

Q: What about the fold binding over binding to BSA (collagen type IX) of the same substance?
A: < 7 fold

Q: What about the percent of the total input bound (collagen type IX) of the same substance?
A: 30%

Q: What about the fold binding over binding to BSA [1] of the same substance?
A: 3.5 fold

Q: What about the percent of the total input bound [1] of the same substance?
A: 15%

Q: What about the fold binding over binding to BSA [2] of the same substance?
A: 5 fold and 7 fold

Q: What about the fold binding over binding to BSA (collagen type III) of the same substance?
A: 10 fold

Q: And the percent of the added astrochondrin bound (collagen type III)?
A: < 40%

Q: What about the percent of the total input bound (collagen type III) of the same substance?
A: < 80%

Q: What about the percent of the total input bound at 15 mM NaCl (collagen type III) of the same substance?
A: 30%
